Reference: the supplement of paper PMC7877785
± gives the uncertainty stated by the source.

Test: self-splicing fitness, log relative to wild type (ln ratio); higher = more splicing; Tetrahymena group I intron in knt gene, E. coli kanamycin selection, DiMSum; sequences stand for … in CUCUCU…GGAGGGAAAAGUUAUCAGGCAUGCACCUGGUAGCUAGUCUUUAAACCAAUAGAUUGCAUCGGUUUAAAAGGCAAGACCGUCAAAUUGCGGGAAAGGGGUCAACAGCCGUUCAGUACCAAGUCUCAGGGGAAACUUUGAGAUGGCCUUGCAAAGGGUAUGGUAAUAAGCUGACGGACAUGGUCCUAACCACGCAGCCAAGUCCUAAGUCAACAGAUCUUCUGUUGAUAUGGAUGCAGUUCACAGACUAAAUGUCGGUCGGGGAAGAUGUAUUCUUCUCAUAAGAUAUAGUCGGACCUCUCCUUAAUGGGAGCUAGCGGAUGAAGUGAUGCAACACUGGAGCCGCUGGGAACUAAUUUGUAUGCGAAAGUAUAUUGAUUAGUUUUGGAGUACUCGUGGUCG
Procedure, shortened: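 Fitness was computed with DiMSum as the error-weighted combination of replicate fold changes, kanamycin versus none, each normalised to wild type. The library randomised all eight intron nucleotides of the P1ex region, with the intron placed in the knt kanamycin-resistance gene on pET-22b(+) in E. coli BL21(DE3). Six replicate transformations were grown overnight at 37°C or 30°C on LB agar with or without 25 μg/mL kanamycin, plus 100 μg/mL carbenicillin, 50 μM IPTG and 0.2% rhamnose. Pooled colonies were amplicon-sequenced on an Illumina HiSeq 2500.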

Row | Sequence | self-splicing fitness (ln) (30 °C) | self-splicing fitness (ln) (37 °C)
1 | CCCGAGCAAUAUUACGCGGC | -3.67 ± 0.4 | -1.88 ± 0.29
2 | ACGCAGCAAUAUUACGCCAA | -3.3 ± 0.2 | -1.75 ± 0.17
3 | CCAUAGCAAUAUUACGUGGG | -4.18 ± 0.16 | -2.96 ± 0.15
4 | AGACAGCAAUAUUACGCGCC | -0.399 ± 0.14 | -0.637 ± 0.12
5 | AGUCAGCAAUAUUACGCCAG | -3.55 ± 0.34 | -2.47 ± 0.31
6 | CGCAAGCAAUAUUACGGAGC | -2.49 ± 0.17 | -2.24 ± 0.24
7 | GAGCAGCAAUAUUACGGGUU | -2.44 ± 0.14 | -2.02 ± 0.16
8 | CUGAAGCAAUAUUACGACCU | -3.63 ± 0.4 | -3.1 ± 0.18
9 | UGCUAGCAAUAUUACGAACA | -0.29 ± 0.12 | 0.199 ± 0.13
10 | CCGGAGCAAUAUUACGUGUC | -3.36 ± 0.14 | -2.82 ± 0.14
11 | CGCAAGCAAUAUUACGAUGC |  | -2.4 ± 0.32
12 | AGCAAGCAAUAUUACGCGGU | -3.33 ± 0.16 | -1.66 ± 0.17
13 | GCGAAGCAAUAUUACGCCUA | -3.1 ± 0.45 | -2.39 ± 0.34
14 | GCUCAGCAAUAUUACGUGAA | -0.113 ± 0.063 | 0.231 ± 0.077
15 | GUUGAGCAAUAUUACGCAAU | -2.68 ± 0.2 | -3.31 ± 0.29
16 | UACGAGCAAUAUUACGGACU | -2.36 ± 0.23 | 
17 | AGUCAGCAAUAUUACGUAAC | -1.88 ± 0.099 | -1.37 ± 0.11
18 | CAUUAGCAAUAUUACGUGCC | -2.77 ± 0.29 | -2.26 ± 0.45
19 | GAACAGCAAUAUUACGGCAA | -0.669 ± 0.094 | -0.372 ± 0.091
20 | ACGUAGCAAUAUUACGGGUC | -3.56 ± 0.19 | -3.42 ± 0.25
21 | CCAAAGCAAUAUUACGCGAG | -2.62 ± 0.098 | -1.42 ± 0.094
22 | CUAGAGCAAUAUUACGGAGU | -4.15 ± 0.33 | -2.87 ± 0.43
23 | UUAUAGCAAUAUUACGUACG | -1.03 ± 0.12 | -0.0555 ± 0.17
24 | CUUAAGCAAUAUUACGAGGA | -2.64 ± 0.34 | -3.43 ± 0.46
25 | GAGCAGCAAUAUUACGCUUA | -0.991 ± 0.077 | -0.238 ± 0.11
26 | UAACAGCAAUAUUACGCAUU | -2.59 ± 0.12 | -0.539 ± 0.096

Row | Sequence | self-splicing fitness (ln) (30 °C) | self-splicing fitness (ln) (37 °C)
27 | UUCUAGCAAUAUUACGAAUU | -2.96 ± 0.23 | -1.58 ± 0.18
28 | ACUGAGCAAUAUUACGAUUU | -1.12 ± 0.082 | -0.446 ± 0.12
29 | GUGGAGCAAUAUUACGUUUA | -3.33 ± 0.2 | -2.26 ± 0.33
30 | AUAAAGCAAUAUUACGACAC | -0.305 ± 0.11 | -0.252 ± 0.13
31 | CUGAAGCAAUAUUACGUCUG | 0.302 ± 0.069 | 0.352 ± 0.08
32 | CAUGAGCAAUAUUACGCUAC |  | -2.29 ± 0.49
33 | UAGCAGCAAUAUUACGAGUU | -3.47 ± 0.15 | -1.98 ± 0.14
34 | GGUCAGCAAUAUUACGAAUC | -0.132 ± 0.14 | 0.365 ± 0.13
35 | AACGAGCAAUAUUACGUGAC |  | -2.76 ± 0.23
36 | AAAGAGCAAUAUUACGGGAC | -3.56 ± 0.38 | -1.96 ± 0.22
37 | ACACAGCAAUAUUACGUAAU | -2.76 ± 0.085 | -1.73 ± 0.12
38 | AUCCAGCAAUAUUACGAUUA | -1.19 ± 0.094 | -0.911 ± 0.1
39 | GGCAAGCAAUAUUACGCAAU | -1.03 ± 0.097 | 0.802 ± 0.11
40 | GUCAAGCAAUAUUACGGGAA | -3.1 ± 0.19 | -0.398 ± 0.12
41 | GGGCAGCAAUAUUACGACAC | -0.731 ± 0.26 | 0.302 ± 0.27
42 | AAUGAGCAAUAUUACGAAGA | -2.8 ± 0.19 | -2.91 ± 0.26
43 | CAUCAGCAAUAUUACGGGGU | -4.39 ± 0.25 | -2.11 ± 0.25
44 | AAACAGCAAUAUUACGUCCC | -1.44 ± 0.17 | 0.29 ± 0.17
45 | UUAAAGCAAUAUUACGAGGA | -1.84 ± 0.13 | -0.545 ± 0.16
46 | GGCAAGCAAUAUUACGGCCA | -1.24 ± 0.17 | -0.0702 ± 0.17
47 | AUAGAGCAAUAUUACGGCAU | 0.19 ± 0.084 | 0.738 ± 0.12
48 | CACUAGCAAUAUUACGCCAU | -3.88 ± 0.44 | -2.45 ± 0.28
49 | CCGCAGCAAUAUUACGGGGU | -3.54 ± 0.14 | -2.21 ± 0.13
50 | CCCCAGCAAUAUUACGAUCC | -3.27 ± 0.27 | -0.776 ± 0.32
51 | GUUUAGCAAUAUUACGCCCU | -0.651 ± 0.098 | -0.533 ± 0.11
52 | GCUAAGCAAUAUUACGAGUC | -3.37 ± 0.21 | -1.96 ± 0.22

Row | Sequence | self-splicing fitness (ln) (30 °C) | self-splicing fitness (ln) (37 °C)
53 | CUCUAGCAAUAUUACGUUGG | -3.9 ± 0.22 | -2.92 ± 0.23
54 | GGACAGCAAUAUUACGAUUA | -0.666 ± 0.13 | -0.225 ± 0.12
55 | AGGAAGCAAUAUUACGUCGU | -2.6 ± 0.14 | -0.803 ± 0.12
56 | GCCGAGCAAUAUUACGGCGU | -2.55 ± 0.13 | -0.897 ± 0.1
57 | ACGAAGCAAUAUUACGAAAA | -3.5 ± 0.43 | -2.78 ± 0.43
58 | AUGAAGCAAUAUUACGCACA | 0.703 ± 0.097 | 0.63 ± 0.14
59 | UUGUAGCAAUAUUACGUGGA | -2.15 ± 0.15 | -0.844 ± 0.12
60 | AACGAGCAAUAUUACGCGUA | -2.19 ± 0.19 | -1.72 ± 0.18
61 | AUUUAGCAAUAUUACGGGGU | -3.47 ± 0.26 | -2.32 ± 0.19
62 | UUUCAGCAAUAUUACGUGAU | -2.58 ± 0.13 | -1.8 ± 0.18
63 | GAUUAGCAAUAUUACGAAGC | -2.4 ± 0.21 | -2.28 ± 0.21
64 | CUUGAGCAAUAUUACGUACU | -4.15 ± 0.42 | -3.49 ± 0.39
65 | AGCAAGCAAUAUUACGUCCC | -0.545 ± 0.1 | -0.16 ± 0.13
66 | GCAGAGCAAUAUUACGGAUU | -3.62 ± 0.3 | 
67 | AUUCAGCAAUAUUACGAGCG | -1.08 ± 0.078 | -0.441 ± 0.1
68 | CAAAAGCAAUAUUACGGAAA | -2.67 ± 0.5 | -2.08 ± 0.3
69 | CUGUAGCAAUAUUACGUUUG | -1.44 ± 0.085 | -0.284 ± 0.1
70 | CAUCAGCAAUAUUACGGUAA | -2.64 ± 0.14 | -1.09 ± 0.086
71 | UGUCAGCAAUAUUACGUGUG | -0.636 ± 0.048 | 0.0859 ± 0.065
72 | UAUUAGCAAUAUUACGGUCU | -2.66 ± 0.23 | -1.57 ± 0.32
73 | CAUAAGCAAUAUUACGAGUC | -3.2 ± 0.43 | -2.68 ± 0.38
74 | CUGUAGCAAUAUUACGAUAA | -3.19 ± 0.38 | -1.72 ± 0.27
75 | AUCCAGCAAUAUUACGCAAA | -2.07 ± 0.16 | -0.15 ± 0.11
76 | UCGCAGCAAUAUUACGGCCU | -0.665 ± 0.057 | 0.148 ± 0.076
